Test [1] deals with eel luteinizing hormone receptor D576G (constitutively activating mutant) (eel).
Test [2] concerns the target eel luteinizing hormone receptor, wild type (eel).
The target of test [3] is eel luteinizing hormone receptor D576G (constitutively activating mutant) (eel). This is another data set of the same source.
In test [4] the target is eel luteinizing hormone receptor R476H (inactivating mutant) (eel).
Test [5] has as its target eel luteinizing hormone receptor, wild type (eel). The source holds these as a separate data set.

On to “recombinant eel luteinizing hormone, single-chain eel LHβ/α (ligand)”, for which the EC50 of cAMP production (HTRF) in CHO-K1 cells expressing the receptor, stimulated with rec-eel LH for 30 min in test [1] was 0.0948 µg/mL; in test [2] it was 0.177 µg/mL. The plateau of agonist-induced loss of cell-surface receptor (ELISA on HEK-293 cells, 0-60 min, one-phase exponential decay) in test [3] was 59.8 % of control; in test [4] it was 61.9 % of control; in test [5] it was 64.2 % of control. Besides, the t1/2 of agonist-induced loss of cell-surface receptor (ELISA on HEK-293 cells, 0-60 min, one-phase exponential decay) in test [3] amounted to 0.6 min; in test [4], 0.6 min; in test [5] it was 0.9 min.

On to “recombinant equine chorionic gonadotropin (from UniProt P08751 21-169; P01220 25-120) (ligand)”, for which the plateau of agonist-induced loss of cell-surface receptor (ELISA on HEK-293 cells, 0-60 min, one-phase exponential decay) in test [3] is 46.3 % of control; in test [4] it was 42.6 % of control; in test [5], 56.8 % of control. Further, the figures for the t1/2 of agonist-induced loss of cell-surface receptor (ELISA on HEK-293 cells, 0-60 min, one-phase exponential decay) in test [3], in test [4] and in test [5] were 2.1 min, 1.9 min and 2.5 min, respectively.

These data come from article PMC10252337.
